Measurements reported in paper doi:10.1101/2021.01.06.425618.

Columns and labels:
[1] = molecular target: venus-PreIQ3-IQ-A1.3 (wild type) (rat) (UniProt P27732); assay: FRET or BRET
[2] = molecular target: venus-PreIQ3-IQ-A1.3 F[-2]A (rat); assay: FRET or BRET

Chain of UniProt P27732 (P27732 whole entry): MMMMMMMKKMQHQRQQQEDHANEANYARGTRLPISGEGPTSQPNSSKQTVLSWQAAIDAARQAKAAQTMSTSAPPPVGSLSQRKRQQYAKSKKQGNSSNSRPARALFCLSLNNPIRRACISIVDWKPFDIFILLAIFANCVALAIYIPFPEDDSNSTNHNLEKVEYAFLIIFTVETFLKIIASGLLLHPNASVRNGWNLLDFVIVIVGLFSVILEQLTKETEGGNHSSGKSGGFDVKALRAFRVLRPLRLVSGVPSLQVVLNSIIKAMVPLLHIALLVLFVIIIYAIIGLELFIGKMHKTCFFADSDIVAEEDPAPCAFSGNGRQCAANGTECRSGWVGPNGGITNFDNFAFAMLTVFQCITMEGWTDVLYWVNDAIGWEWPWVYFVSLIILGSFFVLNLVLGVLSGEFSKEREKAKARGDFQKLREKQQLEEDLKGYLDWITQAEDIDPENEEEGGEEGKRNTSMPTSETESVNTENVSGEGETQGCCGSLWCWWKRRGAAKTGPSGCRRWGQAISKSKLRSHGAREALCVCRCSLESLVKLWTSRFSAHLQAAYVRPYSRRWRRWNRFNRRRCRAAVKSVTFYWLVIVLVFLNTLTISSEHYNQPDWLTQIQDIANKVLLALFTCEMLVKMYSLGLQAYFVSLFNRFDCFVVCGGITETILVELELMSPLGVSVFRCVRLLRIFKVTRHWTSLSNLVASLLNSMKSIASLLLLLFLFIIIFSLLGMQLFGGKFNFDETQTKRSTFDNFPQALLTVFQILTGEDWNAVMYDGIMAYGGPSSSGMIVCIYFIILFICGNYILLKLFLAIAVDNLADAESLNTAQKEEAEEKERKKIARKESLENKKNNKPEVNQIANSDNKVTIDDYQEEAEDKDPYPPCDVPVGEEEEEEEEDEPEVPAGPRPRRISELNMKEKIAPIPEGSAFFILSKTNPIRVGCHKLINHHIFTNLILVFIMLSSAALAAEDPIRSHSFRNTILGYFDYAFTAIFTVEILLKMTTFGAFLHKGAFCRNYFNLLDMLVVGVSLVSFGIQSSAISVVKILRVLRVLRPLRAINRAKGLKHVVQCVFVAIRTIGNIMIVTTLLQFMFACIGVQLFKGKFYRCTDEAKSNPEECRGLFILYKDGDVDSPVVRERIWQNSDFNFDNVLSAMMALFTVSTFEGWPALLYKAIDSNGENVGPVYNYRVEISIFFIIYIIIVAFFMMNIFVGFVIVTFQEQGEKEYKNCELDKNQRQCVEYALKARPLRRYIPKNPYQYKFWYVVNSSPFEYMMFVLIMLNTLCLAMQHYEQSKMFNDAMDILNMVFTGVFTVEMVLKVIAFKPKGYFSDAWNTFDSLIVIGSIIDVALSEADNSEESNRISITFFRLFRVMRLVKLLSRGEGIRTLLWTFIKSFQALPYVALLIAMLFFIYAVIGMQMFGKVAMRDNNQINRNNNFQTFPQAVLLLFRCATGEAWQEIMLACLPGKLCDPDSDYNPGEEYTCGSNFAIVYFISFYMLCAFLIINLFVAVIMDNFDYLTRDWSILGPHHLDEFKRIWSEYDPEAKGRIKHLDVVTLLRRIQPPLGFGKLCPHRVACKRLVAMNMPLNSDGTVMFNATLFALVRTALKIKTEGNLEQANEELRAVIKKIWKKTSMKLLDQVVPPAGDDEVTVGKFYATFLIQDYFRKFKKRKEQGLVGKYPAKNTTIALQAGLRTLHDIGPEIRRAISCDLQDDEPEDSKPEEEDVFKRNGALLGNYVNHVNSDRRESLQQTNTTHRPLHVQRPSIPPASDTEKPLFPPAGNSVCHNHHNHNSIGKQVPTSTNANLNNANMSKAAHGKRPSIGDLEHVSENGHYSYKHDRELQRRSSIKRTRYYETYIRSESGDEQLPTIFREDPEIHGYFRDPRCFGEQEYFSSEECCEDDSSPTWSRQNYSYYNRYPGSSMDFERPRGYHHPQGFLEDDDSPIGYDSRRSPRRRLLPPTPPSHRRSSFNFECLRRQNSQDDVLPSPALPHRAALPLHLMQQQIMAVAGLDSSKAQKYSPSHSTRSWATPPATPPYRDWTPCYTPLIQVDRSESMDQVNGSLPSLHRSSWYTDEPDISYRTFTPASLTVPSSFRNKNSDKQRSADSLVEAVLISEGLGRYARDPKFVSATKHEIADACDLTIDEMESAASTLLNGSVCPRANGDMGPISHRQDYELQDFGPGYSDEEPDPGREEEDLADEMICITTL

Substance: Cerulean-ICDI1.4 (wild type) (from UniProt O60840 1-1977) (domain or fragment)
- Ka [1]: 2.14e+07 M⁻¹
- Ka [2]: 5.8e+06 M⁻¹
